Reference: US8586538B2, “Method of treating a patient suffering from a bleeding disorder comprising administering an antibody against the A3-C1 of FVIII” (Stichting Sanquin Bloedvoorziening, priority 2002, dated 2013)

Experiments:
[1] = target: FVIIIa-FIXa complex (Homo sapiens, UniProt P00451+P00740); conditions: by interfering with the assembly of the FVIIIa-FIXa complex; cited from earlier work
[2] = target: T1, FVIII/FV^1811-1818 chimera (Homo sapiens, UniProt P00451, E1830S/F1835V/K1832Y/K1837H/T1831S); assay: SPR binding of scFv KM41 to FVIII/FV^1811-1818 light chain chimera; conditions: scFv 40 nM
T1 construct: FVIII/FV^1811-1818 light chain chimera and wild-type FVIII light chain were purified employing Q-Sepharose chromatography; made in house; host or cells: murine fibroblasts (C127) cells
T1 sequence (P00451 1668-2351 E1830S/T1831S/K1832Y/F1835V/K1837H limits assumed): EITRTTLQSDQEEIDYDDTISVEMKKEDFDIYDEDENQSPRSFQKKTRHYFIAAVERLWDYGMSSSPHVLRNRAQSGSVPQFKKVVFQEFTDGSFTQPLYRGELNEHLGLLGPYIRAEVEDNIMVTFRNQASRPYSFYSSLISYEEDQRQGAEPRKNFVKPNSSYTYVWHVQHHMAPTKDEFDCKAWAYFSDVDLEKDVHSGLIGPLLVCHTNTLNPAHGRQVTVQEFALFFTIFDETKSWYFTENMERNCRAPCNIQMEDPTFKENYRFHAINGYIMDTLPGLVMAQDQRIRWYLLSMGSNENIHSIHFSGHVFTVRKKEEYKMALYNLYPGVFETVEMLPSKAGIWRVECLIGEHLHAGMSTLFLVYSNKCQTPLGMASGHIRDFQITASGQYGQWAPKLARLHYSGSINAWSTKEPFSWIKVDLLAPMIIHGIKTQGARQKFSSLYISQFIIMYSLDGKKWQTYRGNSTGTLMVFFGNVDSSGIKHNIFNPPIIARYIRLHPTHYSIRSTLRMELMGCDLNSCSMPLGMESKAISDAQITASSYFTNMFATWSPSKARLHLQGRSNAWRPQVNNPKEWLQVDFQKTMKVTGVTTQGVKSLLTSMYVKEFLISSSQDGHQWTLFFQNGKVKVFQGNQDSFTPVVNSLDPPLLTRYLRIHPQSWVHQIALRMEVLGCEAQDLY
Procedure: FIG. 7. Binding of scFv KM41 to the FVIII/FV^1811-1818 light chain chimera. ScFv EL14 at a CM5 sensor chip (67 fmol/mm^2) was incubated with either the recombinant wild-type FVIII light chain or the recombinant FVIII/FV^1811-1818 chimera till a density of 20 fmol/mm^2, in 150 mM NaCl, 50 mM Tris (pH 7.4). ScFv KM41 (40 nM) was passed over two separate channels with immobilized intact FVIII light chain (I) or FVIII/FV^1811-1818 chimera (II), respectively. Response is indicated as Resonance Units (RU) and is corrected for nonspecific binding.
The kinetics of protein interactions was determined by surface plasmon resonance (SPR) analysis, employing a BIAcore™2000 biosensor system (Biacore AS, Uppsala, Sweden). […] Association of analyte was assessed in 150 mM NaCl, 2 mM CaCl2, 0.005% (v/v) Tween® 20, and 20 mM Hepes (pH 7.4) for 2 min, at a flow rate of 20 μl/min at 25° C. […] The association (kon) and dissociation (koff) rate constants were determined by using the BIAevaluation software 3.1 (Biacore AB, Uppsala, Sweden). […] Equilibrium dissociation constants (kd) were calculated from the ratio koff/kon. […]

FVIIIa-FIXa complex, sequence (P00451 1709-2351 limits assumed): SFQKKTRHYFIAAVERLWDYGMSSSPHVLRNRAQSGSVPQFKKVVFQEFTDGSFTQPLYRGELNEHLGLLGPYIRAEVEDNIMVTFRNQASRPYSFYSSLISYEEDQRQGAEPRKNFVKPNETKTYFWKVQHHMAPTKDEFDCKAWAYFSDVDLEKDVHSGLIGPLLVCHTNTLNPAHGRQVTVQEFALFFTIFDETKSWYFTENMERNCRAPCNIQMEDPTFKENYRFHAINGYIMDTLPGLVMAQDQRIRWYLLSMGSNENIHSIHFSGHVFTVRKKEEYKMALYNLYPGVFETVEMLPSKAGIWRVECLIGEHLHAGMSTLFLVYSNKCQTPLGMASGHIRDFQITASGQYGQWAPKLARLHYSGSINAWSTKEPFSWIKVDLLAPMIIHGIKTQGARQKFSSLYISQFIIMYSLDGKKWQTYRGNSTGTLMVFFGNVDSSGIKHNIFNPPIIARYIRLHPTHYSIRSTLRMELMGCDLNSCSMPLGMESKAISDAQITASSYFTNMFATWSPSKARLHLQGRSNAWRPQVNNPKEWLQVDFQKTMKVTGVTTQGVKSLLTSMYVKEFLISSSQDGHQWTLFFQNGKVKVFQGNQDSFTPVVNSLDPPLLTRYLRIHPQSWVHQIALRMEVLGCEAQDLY
FVIIIa-FIXa complex, sequence (P00740 47-191 limits assumed): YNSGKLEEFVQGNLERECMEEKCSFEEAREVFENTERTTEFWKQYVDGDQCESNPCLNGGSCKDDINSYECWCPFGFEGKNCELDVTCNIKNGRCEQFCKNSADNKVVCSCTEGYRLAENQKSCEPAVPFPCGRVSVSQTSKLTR

B1: scFv KM41: scFv antibody fragment directed against FVIII region Arg^1803-Lys^1818 (protein)
scFv: QVQLLQSAADVKKPGASVKVSCTASGYIFTSYDIDWVRQATGQGLEWMGWMNPNSGNAGFAQKFKGRLTLTRDTSTSTAYMELRRLESEDTAVYYCARSTPHSYSGSGLPPTSDSWGQGTLVTVSSGGGGSGGGGSGGGGSEIVLTQSPGTLSLSPGERATLSCRASQSVSSSFLGWYQQKPGQAPRLLIYGASSRATGIPDRFSGSGSGTDFTLTISRLEPEDFAVYYCQQYGISPLTFGGGTKLEIKRAAAEQKLISEEDLNGAAHHHHHH
Inhibition of FVIII procoagulant activity [1]: effective inhibitors | Binding of scFv to immobilized FVIII/FV^1811-1818 chimera [2]: did not recognize
